# Laboratory results taken from patent US20260241035A1, “FUNCTIONAL NUCLEIC ACID MOLECULE AND METHOD” (THE UNIVERSITY COURT OF THE UNIVERSITY OF EDINBURGH, priority 2022, published 2026).
# B1: SSE-1: synthetic super-enhancer ID1101_ID2904_ID0109_ID4328, SEQ ID NO: 64 (nucleic acid)
# DNA: GTGAGTGTGACTCACATGCTGGCATCAGAGCCCCTCTTAGAGCTTAGAACACTGGGCCTCTGTCAGGCAAAGAAAAGGAGTCCCTATGAATAGCCATCTCCACAAATAGCAGTTACTGTCACTTCTTAAAAGACACAAGCATGGCTGGAGACCGGCACTGTGCATGTTCTTGGGAAAAAGTGGTATTTAATGAAGGCGCTTTGAGCTGAATCAAAGAGCCTCATTCTTCTGAAAGTCCTTCTTCCTAGTCTCTGCATCCGGCTCCTATCAAAGGAAATCCACAGCTTTGGCTTTTCGTTGCTGTTGTCATGGAAATCGTTGAAATTGGATCCTGAGGAGAATGTCACCACCTCTTTGACAATAACTAGCTTTCAGAGCTGAACACAGTGAATCTGGATACTGTGTATATGTTTAAATGAGTTAGGAAATGACATCACATTATTTATTTCTTCTTTTGTGACTTAGTAAATTGACTTGGCCTACAATCTATTCTCCATAGTCATCAGAGTTTCTTTAAAGGCACGGTTCAGACAATGGCACCCTCTGTTCCAAACCCTCCAGGGCTTCCTATTTCACTTAGCATAAAAACCAAAGTCCTCACAATGACCGACAAGTCTTCACACAATGTGCCCCTTCATTG
# B2: SSE-2: synthetic super-enhancer ID0109_ID4328_ID0876_ID2339, SEQ ID NO: 65 (nucleic acid)
# DNA: GAAATTGGATCCTGAGGAGAATGTCACCACCTCTTTGACAATAACTAGCTTTCAGAGCTGAACACAGTGAATCTGGATACTGTGTATATGTTTAAATGAGTTAGGAAATGACATCACATTATTTATTTCTTCTTTTGTGACTTAGTAAATTGACTTGGCCTACAATCTATTCTCCATAGTCATCAGAGTTTCTTTAAAGGCACGGTTCAGACAATGGCACCCTCTGTTCCAAACCCTCCAGGGCTTCCTATTTCACTTAGCATAAAAACCAAAGTCCTCACAATGACCGACAAGTCTTCACACAATGTGCCCCTTCATTGGAGCAGGCAGTCATTTGGTTCCCTTCTCTGAATGCATTGGCTCTGATCCACGGCGCCTCAGGAAGTGAAAGGGAGCAGGCAGTGAGGCCAAGCCATGAATGTTGGGCCCTTTTCTTAGAAAACAAAGGGTTCACTTTAGGCTAGGAGGAAACATCCGGGGGTCGGCGGAACTGAGTCTCCTTTGTGGAGCCCCTCATTTGCATGATAAACCCCGGGGACAAAGTGTGTTCTTGTTACTTGGACTGTTTCTTGGAAACTGCTGCTACCTGGAGCGAGTGAACACAGGGCAAGTATTCTCGCCCACAGCAACGTGTCATTGA
# B3: SSE-3: synthetic super-enhancer ID0876_ID2339_ID1737_ID0663, SEQ ID NO: 66 (nucleic acid)
# DNA: GAGCAGGCAGTCATTTGGTTCCCTTCTCTGAATGCATTGGCTCTGATCCACGGCGCCTCAGGAAGTGAAAGGGAGCAGGCAGTGAGGCCAAGCCATGAATGTTGGGCCCTTTTCTTAGAAAACAAAGGGTTCACTTTAGGCTAGGAGGAAACATCCGGGGGTCGGCGGAACTGAGTCTCCTTTGTGGAGCCCCTCATTTGCATGATAAACCCCGGGGACAAAGTGTGTTCTTGTTACTTGGACTGTTTCTTGGAAACTGCTGCTACCTGGAGCGAGTGAACACAGGGCAAGTATTCTCGCCCACAGCAACGTGTCATTGACAACGTTTTTGGCAGATGCAGCTCTTTCTGAACAGTAAGTCATTGTTGAGTGACATGAATAGGACGAGAGCTACAGAAAATGAAGGTTTCAAAAGATTGTCTAAAACAAAAGTCCTTTCAGTCCCGTATTCAGAGTTATAAATTCCGATTAGCCAAGGAAGCTCTGAGTCTAAATACCAGCAAAGCTCAGCCCCTGCAAGTGGGGACGAATTATTTGAAAGGTCATCCTAGAGACACTGAACAAAGGGCCTCTAGCAGCT
# B4: SSE-5: synthetic super-enhancer ID2706_ID3547_ID3548_ID3146, SEQ ID NO: 68 (nucleic acid)
# DNA: CCAATGCCAAAGCAGTTTACATTTTACAGATGCCATGGCAACCGTCAGGAAGTTACCCTGTATGGTCTAAGAGGGGGAGGAACCCTCAGTTCCGGGAATTGCCCGCCCCTTTCCCGGAAACTCATGAATAATCCACCCCGTTCCCCCTTAACAAAAGCCACCTCCTCCCTCCTGAAAGGCACCATTGGTCACCAAAACAAGTCCCCTTTGTCCTCCACCGCAGCTGGAGCCTGGGCCTTCCATCTCCTGGGGGCCAATAAAACCCCAGATCAGCCAATCCTCCCTCCCTGGCTCTGTCATCCAAACACTCCCCTGCAACAGATGTACACACAGAGCCCATTGTTTTCTCTAGAAATGTAAACTGCACGTCACAGTTACTCCATACACACCACAAACAGACTCCCTTTGTTCTCAGGATATGTGTTGACACAAGAATATGTCATCCTCTCAGCTCCAGACTGAAAGAGATGGGTGTGTGGGAGTGGGGGAAGCTGAGCTCCAGGCAGACAGCACAGAGCCGCCTTGTCCAACCCAGCCAGGTGCCATGGCAACCAACAAAGGCCCCATTGTCCCGTGTCTGCTGGGCCTTCCTGAGGCTCTGGGGTCAGAGTCCCGGTT
# B5: ID2904: enhancer fragment, SEQ ID NO: 5 (nucleic acid)
# DNA: TGCATGTTCTTGGGAAAAAGTGGTATTTAATGAAGGCGCTTTGAGCTGAATCAAAGAGCCTCATTCTTCTGAAAGTCCTTCTTCCTAGTCTCTGCATCCGGCTCCTATCAAAGGAAATCCACAGCTTTGGCTTTTCGTTGCTGTTGTCATGGAAATCGTT
# B6: ID1244: enhancer fragment, SEQ ID NO: 25 (nucleic acid)
# DNA: ACAGCAGCCAGAGGAAGTGGCTGTGTACAGAGAGCTTTTGTGAGAGAAGAGGGGGAGGGGGAAAGAGCAAAGAAAAAGAAGGAAAGAAGAGAGGGAAGAGGCCAGAGACAGAGAAGGCCAGAGCA
# modifications: listed as DNA, chemistry not given here
# B7: ID1322: enhancer fragment, SEQ ID NO: 27 (nucleic acid)
# DNA: GGGCAACAAAGGATGCCATGCAAAGCAGCTCAGAACTTGAGTTGTTTCAACAGATGCTGTTTTATGTTTTGCCAAAGAATGGCCCCTTTTATTTCTGTCATGAATGCAGTCTTTCTTTCAGTTTCTAAATGTTTGCCAGTATTAACCCTAATCCTTATCT
# B8: ID0456: enhancer fragment, SEQ ID NO: 26 (nucleic acid)
# DNA: ATCACAAAGTGGTTAGCATGCAGGGGAGTGCGCCGGTCCCCCGCCTGTATTTGCATGACAAAAGCGCCTGCCCAACGGCTCTCGGTGGCTTTGTTGAGAGCTGCAGCCTCGCTCAGGCTGAGCCTTGGGAATTGTTCCCCGACATTGGTTGTTCCTGGGC
# Test system: GSC7 cells
# Assay: Flow cytometry of mNGreen reporter in GSC7
# Assay type: cell-based, human
# Conditions: not given
# Description: Cells were seeded at the required density. The following day the transfection was carried out. […] Following this step, the Plus reagent/Optimem premix was added to all DNA samples followed by the Lipofectamine LTX/Optimem premix. The transfection mix was incubated for 5 min at room temperature and then carefully dropped on the cells. Generally, no media change was carried out. Cells were analysed two days following transfection.
# For flow cytometry, cells were detached, pelleted and resuspended in an appropriate volume of flow cytometry buffer (1% BSA in PBS, v/v). Cells were stained with Draq7 (Abcam, ab109202, f.c. 0.1 μM) as a live/dead stain and analysed using the BD LSRFortessa cell analyser (4 lasers, BD Bioscience).
Molecule,"expression level compared with positive control CMV, flow cytometry",fluorescence intensity compared with CMV
B1,higher than CMV,higher intensity than CMV
B2,higher than CMV,higher intensity than CMV
B3,higher than CMV,–
B4,higher than CMV,higher intensity than CMV

# Molecular target: T1, SOX9 (Homo sapiens, UniProt P48436)
# T1 construct: These dsDNA fragments were incubated with nuclear extract from GSC7 and GSC328; endogenous in cells; host or cells: nuclear extract of GSC7 and/or GSC328 (patient-derived glioblastoma stem cell lines)
# T1 sequence (P48436 1-509): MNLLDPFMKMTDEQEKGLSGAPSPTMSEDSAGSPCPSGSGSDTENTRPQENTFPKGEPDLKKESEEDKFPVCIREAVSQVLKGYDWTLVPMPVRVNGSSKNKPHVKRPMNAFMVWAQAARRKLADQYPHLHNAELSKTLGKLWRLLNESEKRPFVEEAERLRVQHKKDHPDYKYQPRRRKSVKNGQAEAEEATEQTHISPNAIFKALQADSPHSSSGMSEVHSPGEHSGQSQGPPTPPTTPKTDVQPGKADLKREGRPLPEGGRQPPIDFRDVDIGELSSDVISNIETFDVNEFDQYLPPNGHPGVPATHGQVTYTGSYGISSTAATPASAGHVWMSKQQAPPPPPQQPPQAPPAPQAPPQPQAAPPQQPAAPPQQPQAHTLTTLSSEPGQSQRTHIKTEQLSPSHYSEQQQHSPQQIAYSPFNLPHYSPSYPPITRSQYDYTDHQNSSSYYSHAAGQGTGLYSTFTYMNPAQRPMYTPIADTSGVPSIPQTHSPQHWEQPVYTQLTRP
# Assay: Biotinylated enhancer pull down from nuclear extract, SOX9 detection
# Assay type: binding
# Conditions: random DNA 599 as negative control
# Description: The oligo was PCR-amplified using biotinylated primers. The PCR product was then SPRI purified to remove biotinylated primer dimers. These dsDNA fragments were incubated with nuclear extract from GSC7 and GSC328. They were then bound to streptavidin magnetic beads, washed three times and the frozen beads were sent for mass spectrometry analysis.
# All the buffers were prepared the day before, passed through a 22 μm filter (except the dialysis buffer) and left at 4° C. overnight. DTT and protease inhibitors were added just before use. […] The cell suspension was transferred to a glass Dounce homogenizer and dounced 40 times on ice. […] Dialysis buffer was changed (500 ml) and the dialysis was continued overnight at 4° C. The extract was collected in an 1.5 ml tube and spun at maximum speed for 15 min at 4° C. […] 100 μg aliquots were flash frozen in liquid nitrogen and stored at −80° C.
# Enhancers were amplified with 5′ biotinylated primers (Table 5) using PrimeStar Max (Takara) according to the manufacturer's instructions.
# Streptavidin Magnetic Bead (NEB, S1420S) were used according to the manufacturer's instructions. […]
# Next, we aimed to confirm that indeed SOX2 and SOX9 are binding to the enhancer and the SOX dimer motif. […] To filter for transcription factors a list of all transcription factors was obtained from UniProt and overlapped with the detected proteins in both cell lines.
row,Molecule,SOX9 interaction
1,B5,selectively interacts

# Test system: GSC7 cells
# Assay: Nano-Glo Dual-Luciferase Reporter (Nanoglo DLR) assay of enhancer activity, fold change to mCMV
# Assay type: cell-based, human
# Conditions: GSC7
# Procedure, shortened: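 160 bp enhancer fragments in NanoLuc reporter plasmids were co-transfected 1:10 with PGK-firefly luciferase into GSC7 cells using Lipofectamine LTX/Plus and read two days later. NanoLuc signal was normalised to firefly, then expressed as fold change to the empty mCMV vector.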
row,Molecule,"activity compared with CMV, Nanoglo DLR assay"
1,B1,higher than CMV
2,B2,higher than CMV
3,B3,higher than CMV
4,B4,higher than CMV

# Same assay, conditions: expression fold change of the individual enhancer compared to mCMV
row,Molecule,Fold change (Median) [fold]
1,B6,27.8
2,B7,26.7
3,B8,27.2
4,B5,251.6
